Experiment [1] addresses T1, Human recombinant Bcl-2 (1-205), soluble GST-fusion (human, UniProt P10415 1-205).
T1 construct: Bought from Santa Cruz Biotechnology; also called GST-Bcl-2; not shown: glutathione S-transferase (GST) fusion partner
The experiment can be described thus: change of fluorescence emission of the fluorescein-labeled peptide on titration with Bcl-2, 4°C, PBS.

Experiment [2] concerns the target Carbonic anhydrase II (Sigma). The experiment can be described thus: fluorescence titration of the labeled peptide, PBS.
In experiment [3] the target is Calmodulin (Sigma) (Homo sapiens (Human), UniProt P0DP23 2-149). The experiment can be described thus: fluorescence titration of the labeled peptide; buffer with 130 mM KCl, 1 mM CaCl2.
Experiment [4] has as its target T2, GST-hDM2 (residues 1-188) (human, UniProt Q00987 1-188).
T2 construct: also called human oncoprotein double minute two; not shown: glutathione S-transferase (GST) fusion partner
The experiment can be described thus: competition with 10 nM p53AD-Flu for 400 nM GST-hDM2; fraction of p53AD-Flu bound at equilibrium.

Where no end group is shown, it is not given here.

T1 sequence (P10415 1-205): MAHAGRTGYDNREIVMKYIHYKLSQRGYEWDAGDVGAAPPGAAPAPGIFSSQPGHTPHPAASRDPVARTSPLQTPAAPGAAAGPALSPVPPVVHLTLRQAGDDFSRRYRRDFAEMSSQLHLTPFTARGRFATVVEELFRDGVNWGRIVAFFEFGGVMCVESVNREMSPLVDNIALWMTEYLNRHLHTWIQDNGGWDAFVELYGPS
T2 sequence (Q00987 1-188): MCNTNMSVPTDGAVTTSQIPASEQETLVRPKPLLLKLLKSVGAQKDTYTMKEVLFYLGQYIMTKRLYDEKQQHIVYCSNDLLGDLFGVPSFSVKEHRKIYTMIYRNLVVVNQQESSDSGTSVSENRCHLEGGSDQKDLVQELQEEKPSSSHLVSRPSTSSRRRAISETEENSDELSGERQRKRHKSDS

GQVGRQLAIIGDDINRYC(5‑iodoacetamidofluorescein)-NH2 (also called Bak BH3 peptide; Bak 72-94) [Bak peptide, fluorescein-labeled form with additional carboxy-terminal YC]: the Kd (usually the concentration at which binding is half-saturated) is 0.363 µM in experiment [1], 22 µM in experiment [2] and 25 µM in experiment [3].
For GPSQPTYPGDDAPVEDLIRFKFLLQWYLLAL (designed binder, also called p3559) [pZutshi, as competitor (not labeled)], affinity in experiment [4] was put at a Ki of 0.722 µM.

Source of the values: patent publication EP1724347A2 (Yale University, dated 2006).
